Values of other authors as cited in US7410776B2, “Polypeptides, their production and use” (Takeda Pharmaceutical Company Limited, priority 1997, dated 2008).

Biological target: T1, APJ (Homo sapiens, UniProt P35414)
T1 construct: host or cells: CHO cells
T1 sequence (P35414 1-380): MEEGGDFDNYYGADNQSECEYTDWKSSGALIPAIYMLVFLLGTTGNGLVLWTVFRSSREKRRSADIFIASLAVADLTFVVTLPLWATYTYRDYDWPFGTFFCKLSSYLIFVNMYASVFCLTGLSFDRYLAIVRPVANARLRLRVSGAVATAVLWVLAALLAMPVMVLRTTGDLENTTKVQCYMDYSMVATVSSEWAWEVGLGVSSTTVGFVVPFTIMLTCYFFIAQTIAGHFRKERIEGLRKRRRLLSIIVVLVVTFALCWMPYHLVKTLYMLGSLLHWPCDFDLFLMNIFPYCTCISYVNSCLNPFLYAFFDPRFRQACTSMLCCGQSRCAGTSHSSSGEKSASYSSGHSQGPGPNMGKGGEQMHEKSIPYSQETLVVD
Conditions: APJ expressed in CHO cells

- reaction with APJ: no reaction was detected at all
Substance: angiotensin II (DRVYIHPF; Angiotensin-2; UniProt P01019 25-32, looked up) [known peptide tested on APJ expressed in CHO cells]
